The values below come from PMC9149119.

Series [1] has as its target T1, MsCAPP PP domain (MsPP111-328) (Marinitoga sp. 1137, UniProt PDB:7QAZ_1 1-219).
T1 sequence: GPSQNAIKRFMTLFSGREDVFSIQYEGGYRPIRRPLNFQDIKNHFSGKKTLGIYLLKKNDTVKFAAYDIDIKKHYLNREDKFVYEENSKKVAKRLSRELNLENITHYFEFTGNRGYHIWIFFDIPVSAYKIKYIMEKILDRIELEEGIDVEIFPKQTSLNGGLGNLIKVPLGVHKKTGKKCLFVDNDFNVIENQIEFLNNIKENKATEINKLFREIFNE
Briefly: X-ray crystallography.

In series [2] the target is T1, MsCAPP PP domain (MsPP111-328). Briefly: X-ray crystallography. The source holds these as a separate data set.

Like-named read-outs stand apart in the source and are kept apart here.

B1: primer initiation template 9-mer (ssDNA)
DNA: AAAAATCAA
B1: the binding result in series [1] was “binds”.

B2: dsDNA 6-mer (dsDNA)
DNA 1: CGTGCG
DNA 2: CGTGCG
For B2, the binding result in series [2] is “binds”.
